Source: paper doi:10.1101/2021.10.27.466211 (bioRxiv, 2021)

Biological target: the molecule itself
Assay: cross-linking

B1: PomA-L22C/T33C (natural protein, Vibrio alginolyticus, UniProt O06873 1-253, looked up)
chain: MDLATLLGLIGGFAFVIMAMVCGGSIGMFVDVCSILIVVGGSIFVVLMKFTMGQFFGATKIAGKAFMFKADEPEDLIAKIVEMADAARKGGFLALEEMEINNTFMQKGIDLLVDGHDADVVRAALKKDIALTDERHTQGTGVFRAFGDVAPAMGMIGTLVGLVAMLSNMDDPKAIGPAMAVALLTTLYGAILSNMVFFPIADKLSLRRDQETLNRRLIMDGVLAIQDGQNPRVIDSYLKNYLNEGKRALEIDE
  stoichiometry N: ≤ 5
